Experimental data reported in article PMC4914101 (Nucleic Acids Research, 2016).
Where two headings read alike, the source gives them in different places.

B5: SART3 HAT-C with Lα (residues 278–611) (domain or fragment, human, UniProt Q15020 278-611, looked up)
chain: PESVIQNYNKALQQLEKYKPYEEALLQAEAPRLAEYQAYIDFEMKIGDPARIQLIFERALVENCLVPDLWIRYSQYLDRQLKVKDLVLSVHNRAIRNCPWTVALWSRYLLAMERHGVDHQVISVTFEKALNAGFIQATDYVEIWQAYLDYLRRRVDFKQDSSKELEELRAAFTRALEYLKQEVEERFNESGDPSCVIMQNWARIEARLCNNMQKARELWDSIMTRGNAKYANMWLEYYNLERAHGDTQHCRKALHRAVQCTSDYPEHVCEVLLTMERTEGSLEDWDIAVQKTETRLARVNEQRMKAAEKEAALVQQEEEKAEQRKRARAEKKAL

Legend:
[1] = target: B5; experiment: ITC
[2] = target: T1, SART3 HAT repeat domain (residues 94–611) (human, UniProt Q15020 94-611); experiment: ITC
T1 sequence (looked up): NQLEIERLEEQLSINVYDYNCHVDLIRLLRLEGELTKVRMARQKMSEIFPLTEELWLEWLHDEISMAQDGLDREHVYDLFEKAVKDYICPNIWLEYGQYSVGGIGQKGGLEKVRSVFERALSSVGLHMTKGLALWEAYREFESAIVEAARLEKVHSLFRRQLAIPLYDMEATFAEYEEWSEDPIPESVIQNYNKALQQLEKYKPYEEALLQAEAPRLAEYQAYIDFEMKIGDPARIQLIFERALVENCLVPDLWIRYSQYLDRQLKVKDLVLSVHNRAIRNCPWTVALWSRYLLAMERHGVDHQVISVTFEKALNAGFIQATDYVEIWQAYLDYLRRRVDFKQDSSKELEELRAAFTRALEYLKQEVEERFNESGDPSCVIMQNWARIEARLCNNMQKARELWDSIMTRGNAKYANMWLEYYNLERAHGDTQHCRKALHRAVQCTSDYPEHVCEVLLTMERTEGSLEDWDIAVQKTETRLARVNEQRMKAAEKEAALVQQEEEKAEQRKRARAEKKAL

[3] = target: T1, SART3 HAT repeat domain (residues …); experiment: ITC; remark: listed apart in the source
[4] = target: mouse importin-α2 (residues 70–498) (mouse, UniProt P52293 70-498); experiment: ITC
crystal structure = target: the molecule itself; experiment: crystal structure

B1: DUSP-UBL domains of human USP15 (residues 1–226) (domain or fragment, UniProt Q9Y4E8 1-226, looked up)
chain: MAEGGAADLDTQRSDIATLLKTSLRKGDTWYLVDSRWFKQWKKYVGFDSWDKYQMGDQNVYPGPIDNSGLLKDGDAQSLKEHLIDELDYILLPTEGWNKLVSWYTLMEGQEPIARKVVEQGMFVKHCKVEVYLTELKLCENGNMNNVVTRRFSKADTIDTIEKEIRKIFSIPDEKETRLWNKYMSNTFEPLNKPDSTIQDAGLYQGQVLVIEQKNEDGTWPRGPST
Kd [1]: 140 ± 60 nM
dH [1]: -17.7 ± 0.5 kcal/mol
stoichiometry N [1]: 1.09 ± 0.01
Kd [2]: 190 ± 40 nM
dH [2]: -16.1 ± 0.1 kcal/mol
stoichiometry N [2]: 0.99 ± 0.01

B2: DUSP-UBL domains of human USP4 (residues 1–230) (domain or fragment, UniProt Q13107 1-230, looked up)
chain: MAEGGGCRERPDAETQKSELGPLMRTTLQRGAQWYLIDSRWFKQWKKYVGFDSWDMYNVGEHNLFPGPIDNSGLFSDPESQTLKEHLIDELDYVLVPTEAWNKLLNWYGCVEGQQPIVRKVVEHGLFVKHCKVEVYLLELKLCENSDPTNVLSCHFSKADTIATIEKEMRKLFNIPAERETRLWNKYMSNTYEQLSKLDNTVQDAGLYQGQVLVIEPQNEDGTWPRQTLQ
Kd [1]: 580 ± 30 nM
dH [1]: -21.1 ± 0.4 kcal/mol
stoichiometry N [1]: 1.05 ± 0.01
Kd [2]: 880 ± 130 nM
dH [2]: -21.6 ± 0.6 kcal/mol
stoichiometry N [2]: 1.07 ± 0.02

B3: USP11^L4 (USP11 DUSP-UBL with the linker replaced by the USP4 linker) (domain or fragment, human, UniProt P51784 73-288, looked up)
chain: EELPGLDSQWRQIENGESGRERPLRAGESWFLVEKHWYKQWEAYVQGGDQDSSTFPGCINNATLFQDEINWRLKEGLVEGEDYVLLPAAAWHYLVSWYGLEHGQPPIERKVIEHGLFVKHCKVEVYPVELLLVRHNDLGKSHTVQFSHTDSIGLVLRTARERFLVEPQEDTRLWAKNSEGSLDRLYDTHITVLDAALETGQLIIMETRKKDGTWPSAQL
Kd [3]: 20100 ± 4360 nM
dH [3]: -9.1 ± 0.4 kcal/mol
stoichiometry N [3]: 0.89 ± 0.15

B4: USP11^L15 (USP11 DUSP-UBL with the linker replaced by the USP15 linker) (domain or fragment, human, UniProt P51784 73-288, looked up)
chain: EELPGLDSQWRQIENGESGRERPLRAGESWFLVEKHWYKQWEAYVQGGDQDSSTFPGCINNATLFQDEINWRLKEGLVEGEDYVLLPAAAWHYLVSWYGLEHGQPPIERKVIEQGMFVKHCKVEVYPVELLLVRHNDLGKSHTVQFSHTDSIGLVLRTARERFLVEPQEDTRLWAKNSEGSLDRLYDTHITVLDAALETGQLIIMETRKKDGTWPSAQL
Kd [3]: 18700 ± 2250 nM
dH [3]: -5.7 ± 0.7 kcal/mol
stoichiometry N [3]: 1.06 ± 0.09

RKRARAEKKALKKKKKIRGPEKRGADEDDEKEWGDDEEEQPSKRRRVEN (domain or fragment) [SART3 NLS (residues 601–649)]
Kd [4]: 210 ± 10 nM
dH [4]: -8.6 ± 0.2 kcal/mol
stoichiometry N [4]: 1.01 ± 0.01

B5
binding result (crystal structure): binds
